Reference: paper PMC3690595 (Biochemistry, 2013)

Molecular target: the molecule itself
Assay: 2D-DIGE with tandem mass spectrometry of picked spots

B1: βB1-crystallin (natural protein, mouse (endogenous in mouse lens), UniProt Q9WVJ5 1-250, looked up)
chain: MSQAAKASATTAVNPGPDGKGKGAPSTGPAPAPGPTPVPASVPRPAAKVGDLPPGSYRLIVFEQENFQGRRVEFSGECLNLGDRGFDRVRSLIVVSGPWVAFEQSAFRGEMFVLEKGEYPRWDTWTSSYRSDRLMSFRPIRMDSQEHKICLFEGANFKGNTMEIQEDDVPSLWVYGFCDRVGSITVSGGTWVGYQYPGYRGYQYLLEPGDFRHWNEWGAFQPQMQAVRRLRDRQWHQEGCFPVLTAEPPK
- stoichiometry N: 2
